From publication PMC3885427, “NPPB and ACAN, Two Novel SHOX2 Transcription Targets Implicated in Skeletal Development” (PLoS ONE, 2014)

Assays:
Assay in all cases: two-hybrid; S. cerevisiae Y187 cotransformed with pGBT9 (GAL4 binding domain) and pACT2 (GAL4 activation domain) fusions; β-galactosidase liquid assay with CRPG as substrate; fragments and mutants given as percent of full-length or wild-type protein; empty vectors as negative controls
Conditions in all cases: partners not purified
[1] = target: T1, SHOX(117–274), yeast two-hybrid fusion (human, UniProt O15266 117-274)
T1 construct: SHOXa, human, residues 117-274; source: yeast two-hybrid fusion (S. cerevisiae Y187)

[2] = target: T2, SHOX(117–292), yeast two-hybrid fusion (human, UniProt O15266 117-292)
T2 construct: SHOXa, human, residues 117-292; source: yeast two-hybrid fusion (S. cerevisiae Y187)

[3] = target: T3, SHOX(1–211), yeast two-hybrid fusion (human, UniProt O15266 1-211)
T3 construct: SHOXa, human, residues 1-211; source: yeast two-hybrid fusion (S. cerevisiae Y187)

[4] = target: T4, SHOX(178–292), yeast two-hybrid fusion (human, UniProt O15266 178-292)
T4 construct: SHOXa, human, residues 178-292; source: yeast two-hybrid fusion (S. cerevisiae Y187)
T4 sequence (looked up): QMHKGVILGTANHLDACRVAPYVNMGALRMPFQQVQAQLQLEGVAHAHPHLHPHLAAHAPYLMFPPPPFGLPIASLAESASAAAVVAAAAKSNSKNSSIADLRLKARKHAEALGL

T1 sequence (O15266 117-274): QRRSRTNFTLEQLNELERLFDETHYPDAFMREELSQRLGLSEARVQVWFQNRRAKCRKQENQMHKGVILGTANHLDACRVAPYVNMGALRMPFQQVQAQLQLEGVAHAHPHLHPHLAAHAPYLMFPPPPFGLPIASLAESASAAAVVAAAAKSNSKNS
T3 sequence (O15266 1-211): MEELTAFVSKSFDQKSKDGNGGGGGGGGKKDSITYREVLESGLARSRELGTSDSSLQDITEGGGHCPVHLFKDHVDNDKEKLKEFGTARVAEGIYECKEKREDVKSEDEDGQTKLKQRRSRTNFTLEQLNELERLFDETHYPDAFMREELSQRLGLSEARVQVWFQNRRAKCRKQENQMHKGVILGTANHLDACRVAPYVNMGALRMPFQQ

β-galactosidase units as percent of full-length SHOX [1]: < 50 % of the wildtype
β-galactosidase units as percent of full-length SHOX [2]: < 50 % of the wildtype
β-galactosidase units as percent of full-length SHOX [3]: < 50 % of the wildtype
β-galactosidase units as percent of full-length SHOX [4]: < 50 % of the wildtype
B1: SHOX2a (called SHOX2 in the paper), full-length, yeast two-hybrid fusion (natural protein)
chain: not shown
notes: SHOX2a (short stature homeobox 2, isoform a), human; full-length cDNA NM_006884.3 made from IMAGE SHOX2 clone 4122010 by removing a 70 bp region; also called wild-type SHOX2; full-length SHOX2; source: yeast two-hybrid fusion (S. cerevisiae Y187)
